Measured values taken from US6359127B1, “MCH2, an apoptotic cysteine protease, and compositions for making and methods of using the same” (Thomas Jefferson University, priority 1995, dated 2002).

Tests used:
human PARP = assay: Western blot analysis of PARP cleavage after incubation with recombinant enzyme; assay type: biochemical; details: Western blot with 4C10-5 antibody
Protocol: In apoptotic cells, nuclear proteins such as PARP, lamins and the 70-kDa protein component of the U1 small nuclear ribonucleoprotein are cleaved specifically by an unknown ICE-like cysteine protease(s). Cleavage of human PARP at the DEVD (SEQ ID NO:9) site (amino acid 211-214) would generate a large protein product of predicted molecular mass of 89.3 kDa (amino acids 215-1014). Western blot analysis of human PARP after incubation with recombinant Mch2α, Mch2β, ICEγ or CPP32 was performed using the 4C10-5 antibody. This antibody recognizes an epitope in the 41 kDa C-terminal chymotryptic fragment of PARP. CPP32 cleaved PARP to generate a major band of ˜90 kDa and a minor band of 57 kDa. The 90 kDa band was most probably generated by cleaving the DEVD (SEQ ID NO:9) site at residue 214 of PARP. This cleavage product is believed to correspond to an 85 kDa PARP cleavage product which has been described in apoptotic cells. The 57 kDa cleavage product is probably generated by cleavage at a site C-terminal to the DEVD (SEQ ID NO:9) site. This product was not detected with the C-2-10 antibody used in a previous study. This is probably because it recognizes an epitope that is N-terminal to the epitope that is recognized by the 4C10-5 antibody used in the present study. Mch2α also cleaved PARP to generate a major product of ˜83 kDa and a minor product of ˜57 kDa similar to that obtained with CPP32. PARP was not cleaved by Mch2β or ICEγ. […] Furthermore, the deletion in Mch2β abrogates its enzymatic activity.

YVAD-AMC (SEQ ID NO:8) = assay: cleavage of fluorogenic peptide YVAD-AMC by bacterial extracts expressing GST-fusion enzymes; assay type: biochemical; details: for ability to cleave the YVAD substrate: total bacterial extracts, GST-fusion proteins
Protocol: (§1) To determine the enzymatic activity of Mch2, CPP32 or ICE, these enzymes were expressed in E. coli as fusion proteins with glutathione S-transferase (GST). A GST-CPP32-p20 fusion protein that contains amino acids 1-175 of CPP32 and a GST nonfusion protein were used as controls. After induction with IPTG, bacterial extracts were prepared from E. coli expressing the recombinant fusion proteins. The extracts were absorbed to glutathione-Sepharose resin, washed several times and then analyzed by SDS-PAGE. The ICEγ, CPP32 and Mch2α preparations containing GST-fusion proteins ranged in size from ˜28-35 kDa. The GST nonfusion protein control migrated as a ˜27-28 kDa protein. […] Aps26 of ICEγ which corresponds to Asp 119 of ICEα is a site that is cleaved during ICE activation. Cleavage at this site would generate a GST-fusion protein with a predicted molecular mass of ˜29 kDa that might correspond to the 31 kDa band. Cleavage at Asp 3 of ICEγ, although it is not a known ICE cleavage site, could generate the 28 kDa band (lane 2). Similar to the GST-ICEγ preparation, the GST-CPP32 and GST-Mch2 preparations contain smaller than predicted GST fusion products. The GST-CPP32 fusion product migrates as a ˜29-30 kDa protein. Cleavaae at Asp9 or Asp28 of CPP32 would generate products with predicted molecular masses of ˜27.3 kDa or ˜29.4 kDa, respectively. Based on the observed size of the GST-CPP32 product, CPP32 is most probably cleaved at Asp28, although it is possible that both sites are cleaved during CPP32 autoprocessing. Unlike the GST-CPP32 which contains full length CPP32, the GST-CPP32-p20 product which contains a truncated CPP32 migrates as a ˜46 kDa protein that agreed with its predicted molecular mass. […] Therefore if CPP32 is cleaved at Asp28, CPP32 appears to be made up of two subunits of relative molecular masses of 17 kDa and 11 kDa. However, the exact Asp cleavage sites that are utilized to generate active CPP32 remains to be determined by amino acid sequencing. The GST-Mch2α preparation contains two major bands that migrate as ˜31-32 kDa and ˜34-35 kDa proteins. This is consistent with cleavage at Asp23, Asp32 or Asp40 of Mch2α. These GST-Mch2α cleavage products are larger than the GST-CPP32 product because of the presence of extra 33 amino acids in the GST-Mch2α fusion construct that are derived from the 5′ untranslated region of Mch2α. A minor band of ˜27 kDa is also present in this preparation that could be due to cleavage at a site near the C-terminus of the GST peptide itself. The majority of GST-Mch2β was expressed in E. coli in […] and was not cleaved.
After establishing that Mch2 and CPP32 can autoprocess in bacteria, their enzymatic activity were tested using two fluorogenic peptide substrates, YVAD-AMC (SEQ ID NO:8) and DEVD-AMC (SEQ ID NO:3). The YVAD (SEQ ID NO:8) […] is the ICE cleavage site in pro-IL1β and the DEVD (SEQ ID NO:9) tetrapeptide is a site present in PARP that is cleaved by an ICE-like protein during apoptosis. The enzymatic activities of Mch2α, Mch2β, CPP32 and ICEγ, in total bacterial extracts from cells expressing these enzymes as GST-fusion proteins was studied using the YVAD-AMC (SEQ ID NO:8) and DEVD-AMC (SEQ ID NO:3) tetrapeptides as substrates. […] The purified GST-fusion products or the GST control extract had no enzymatic activity with either of the substrates.

DEVD-AMC (SEQ ID NO:3) = assay: cleavage of fluorogenic peptide DEVD-AMC by bacterial extracts expressing GST-fusion enzymes; assay type: biochemical; details: for ability to cleave the DEVD substrate: total bacterial extracts, GST-fusion proteins
Protocol: as §1
After establishing that Mch2 and CPP32 can autoprocess in bacteria, their enzymatic activity were tested using two fluorogenic peptide substrates, YVAD-AMC (SEQ ID NO:8) and DEVD-AMC (SEQ ID NO:3). […]

Sf9 cells = assay: apoptosis of Sf9 cells infected with recombinant baculovirus expressing the protein; assay type: cell-based, insect; details: polyhedron promoter
Text: To test whether expression of Mch2α has a similar apoptotic effect, Sf9 cells were infected with a recombinant baculovirus expressing Mch2α or Mch2β under the polyhedron promoter. Cells were also infected with the wild type virus and the recombinant ICE baculovirus as controls.

| Molecule | cleavage of PARP (human PARP) | activity in cleaving the YVAD substrate relative to CPP32 (YVAD-AMC (SEQ ID NO:8); ICEγ versus CPP32) | ability to cleave the YVAD substrate (YVAD-AMC (SEQ ID NO:8)) | ability to cleave the DEVD substrate (DEVD-AMC (SEQ ID NO:3)) | characteristic signs of apoptosis (membrane blebbing, nuclear fragmentation and condensation, internucleosomal DNA cleavage) (Sf9 cells) | activity in cleaving the DEVD substrate relative to ICEγ or Mch2α (DEVD-AMC (SEQ ID NO:3); from initial rate of the reactions, assuming similar amount of each enzyme in extracts) [fold] | viability of infected cells (Sf9 cells) |
| --- | --- | --- | --- | --- | --- | --- | --- |
| ICEγ: isoform of interleukin-1 β converting enzyme (ICE), expressed as GST-fusion protein (protein) MADKVLKEKRKLFIRSMGEAPQAVQDNPAMPTSSGSEGNVKLCSLEEAQRIWKQKSAEIYPIMDKSSRTRLALIICNEEFDSIPRRTGAEVDITGMTMLLQNLGYSVDVKKNLTASDMTTELEAFAHRPEHKTSDSTFLVFMSHGIREGICGKKHSEQVPDILQLNAIFNMLNTKNCPSLKDKPKVIIIQACRGDSPGVVWFKDSVGVSGNLSLPTTEEFEDDAIKKAHIEKDFIAFCSSTPDNVSWRHPTMGSVFIGRLIEHMQEYACSCDVEEIFRKVRFSFEQPDGRAQMPTTERVTLTRCFYLFPGH | not cleaved | about 3 fold | able to cleave | able to cleave | – | – | – |
| ICE: mammalian interleukin-1 β converting enzyme, expressed from recombinant ICE baculovirus as control (protein) MADKVLKEKRKLFIRSMGEAPQAVQDNPAMPTSSGSEGNVKLCSLEEAQRIWKQKSAEIYPIMDKSSRTRLALIICNEEFDSIPRRTGAEVDITGMTMLLQNLGYSVDVKKNLTASDMTTELEAFAHRPEHKTSDSTFLVFMSHGIREGICGKKHSEQVPDILQLNAIFNMLNTKNCPSLKDKPKVIIIQACRGDSPGVVWFKDSVGVSGNLSLPTTEEFEDDAIKKAHIEKDFIAFCSSTPDNVSWRHPTMGSVFIGRLIEHMQEYACSCDVEEIFRKVRFSFEQPDGRAQMPTTERVTLTRCFYLFPGH | – | – | – | – | several characteristic signs of apoptosis | – | – |
| CPP32: human Cpp32 (Mch1) apoptotic cysteine protease, expressed as GST-fusion protein (protein) MENTENSVDSKSIKNLEPKIIHGSESMDSGISLDNSYKMDYPEMGLCIIINNKNFHKSTGMTSRSGTDVDAANLRETFRNLKYEVRNKNDLTREEIVELMRDVSKEDHSKRSSFVCVLLSHGEEGIIFGTNGPVDLKKITNFFRGDRCRSLTGKPKLFIIQACRGTELDCGIETDSGVDDDMACHKIPVEADFLYAYSTAPGYYSWRNSKDGSWFIQSLCAMLKQYADKLEFMHILTRVNRKVATEFESFSFDATFHAKKQIPCIVSMLTKELYFYH | cleaved PARP | – | able to cleave | able to cleave | – | ~150 | – |
| Mch2β: alternatively spliced shorter Mch2 isoform, 204 amino acid ~23 kDa protein, SEQ ID NO:7 (protein) MSSASGLRRGHPAVSTVSHADADCFVCVFLSHGEGNHIYAYDAKIEIQTLTGLFKGDKCHSLVGKPKIFIIQACRGNQHDVPVIPLDVVDNQTEKLDTNITEVDAASVYTLPAGADFLMCYSVAEGYYSHRETVNGSWYIQDLCEMLGKYGSSLEFTELLTLVNRKVSQRRVDFCKDPSAIGKKQVPCFASMLTKKLHFFPKSN | not cleaved | – | No detectable enzymatic activity | – | – | – | – |
| Mch2α: full length Mch2 isoform, 293 amino acid ~34 kDa Ced-3/ICE-like cysteine protease, SEQ ID NO:5 (protein) MSSASGLRRGHPAGGEENMTETDAFYKREMFDPAEKYKMDHRRRGIALIFNHERFFWHLTLPERRRTCADRDNLTRRFSDLGFEVKCFNDLKAEELLLKIHEVSTVSHADADCFVCVFLSHGEGNHIYAYDAKIEIQTLTGLFKGDKCHSLVGKPKIFIIQACRGNQHDVPVIPLDVVDNQTEKLDTNITEVDAASVYTLPAGADFLMCYSVAEGYYSHRETVNGSWYIQDLCEMLGKYGSSLEFTELLTLVNRKVSQRRVDFCKDPSAIGKKQVPCFASMLTKKLHFFPKSN | cleaved PARP | – | No detectable enzymatic activity | able to cleave | several characteristic signs of apoptosis | – | decrease in viability |
